In patent US20210032664, “ENGINEERED MEGANUCLEASES WITH RECOGNITION SEQUENCES FOUND IN THE HUMAN BETA-2 MICROGLOBULIN GENE” (Precision Biosciences, Inc., published 2021):

What was measured:
Test in all cases: cell_activity; human T cells, 1 ug mRNA, day 3
Conditions in all cases: tags: N-terminal SV40 NLS
[1] = target: T1, B2M 13-14x.93 QQY66 (Artificial Sequence)
T1 chain: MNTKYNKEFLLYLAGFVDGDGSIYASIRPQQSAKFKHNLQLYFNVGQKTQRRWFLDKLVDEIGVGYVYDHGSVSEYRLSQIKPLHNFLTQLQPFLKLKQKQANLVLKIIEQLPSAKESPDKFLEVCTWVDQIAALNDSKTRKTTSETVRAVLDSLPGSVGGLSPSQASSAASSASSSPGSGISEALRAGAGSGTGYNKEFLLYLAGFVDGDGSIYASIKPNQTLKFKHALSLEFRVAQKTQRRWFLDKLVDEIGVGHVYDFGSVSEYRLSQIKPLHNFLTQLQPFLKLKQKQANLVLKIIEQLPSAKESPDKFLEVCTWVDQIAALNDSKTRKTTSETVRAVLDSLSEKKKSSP
Description: (§1) To test these variants of B2M 13-14x.93, donor human T cells were stimulated with anti-CD3 and anti-CD28 antibodies for 3 days, then electroporated with mRNA encoding a given B2M 13-14 meganuclease (1 μg) using the Amaxa 4D-Nucleofector (Lonza) according to the manufacturer's instructions. At 3 days post-electroporation, cells were stained with an antibody recognizing β-2 microglobulin (BD Biosciences) and analyzed by flow cytometry.

[2] = target: T2, B2M 13-14x.93 EQY66 (Artificial Sequence)
T2 chain: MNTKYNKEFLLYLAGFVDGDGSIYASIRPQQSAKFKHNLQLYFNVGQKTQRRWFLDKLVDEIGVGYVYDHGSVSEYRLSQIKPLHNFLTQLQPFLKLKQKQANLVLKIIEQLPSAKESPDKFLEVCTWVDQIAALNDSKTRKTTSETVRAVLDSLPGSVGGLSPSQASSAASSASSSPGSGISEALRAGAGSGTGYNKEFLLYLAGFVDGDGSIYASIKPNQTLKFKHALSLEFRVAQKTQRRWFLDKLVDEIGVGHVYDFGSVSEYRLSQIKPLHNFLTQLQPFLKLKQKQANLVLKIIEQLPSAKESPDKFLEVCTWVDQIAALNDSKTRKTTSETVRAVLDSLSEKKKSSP
Description: as §1

[3] = target: T3, B2M 13-14x.93 QQR66 (Artificial Sequence)
T3 chain: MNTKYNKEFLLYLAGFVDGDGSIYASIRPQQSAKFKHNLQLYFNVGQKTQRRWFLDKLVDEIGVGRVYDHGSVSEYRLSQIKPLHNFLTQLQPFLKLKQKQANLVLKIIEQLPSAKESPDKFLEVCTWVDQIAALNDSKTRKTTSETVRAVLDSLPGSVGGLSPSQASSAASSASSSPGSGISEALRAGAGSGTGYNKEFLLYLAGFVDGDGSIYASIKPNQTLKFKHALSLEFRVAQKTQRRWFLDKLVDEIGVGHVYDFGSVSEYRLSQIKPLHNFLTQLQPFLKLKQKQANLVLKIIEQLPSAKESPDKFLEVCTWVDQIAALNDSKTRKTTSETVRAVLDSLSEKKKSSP
Description: as §1

[4] = target: T4, B2M 13-14x.93 EE (Artificial Sequence)
T4 chain: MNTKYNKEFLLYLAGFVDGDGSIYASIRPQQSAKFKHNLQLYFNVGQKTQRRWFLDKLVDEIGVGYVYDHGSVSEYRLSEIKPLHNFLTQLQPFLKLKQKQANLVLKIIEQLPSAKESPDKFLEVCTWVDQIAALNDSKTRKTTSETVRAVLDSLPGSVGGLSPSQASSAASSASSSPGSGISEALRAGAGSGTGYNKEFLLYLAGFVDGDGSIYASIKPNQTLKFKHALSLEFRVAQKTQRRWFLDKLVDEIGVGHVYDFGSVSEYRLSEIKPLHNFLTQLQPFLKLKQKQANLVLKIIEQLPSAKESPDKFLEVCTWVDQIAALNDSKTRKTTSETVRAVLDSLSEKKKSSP
Description: as §1

[5] = target: T5, B2M 13-14x.93 QQK66 (Artificial Sequence)
T5 chain: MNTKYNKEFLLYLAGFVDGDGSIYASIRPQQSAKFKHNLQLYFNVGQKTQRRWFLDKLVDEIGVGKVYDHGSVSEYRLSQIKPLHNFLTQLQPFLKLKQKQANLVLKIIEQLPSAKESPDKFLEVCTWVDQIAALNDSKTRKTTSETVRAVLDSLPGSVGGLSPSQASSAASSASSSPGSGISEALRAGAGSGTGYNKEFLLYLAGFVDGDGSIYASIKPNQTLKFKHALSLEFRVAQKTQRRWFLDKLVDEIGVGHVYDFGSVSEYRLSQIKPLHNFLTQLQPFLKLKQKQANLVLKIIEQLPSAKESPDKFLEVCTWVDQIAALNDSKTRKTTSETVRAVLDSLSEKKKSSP
Description: as §1

[6] = target: T6, B2M 13-14x.457 (Artificial Sequence)
T6 chain: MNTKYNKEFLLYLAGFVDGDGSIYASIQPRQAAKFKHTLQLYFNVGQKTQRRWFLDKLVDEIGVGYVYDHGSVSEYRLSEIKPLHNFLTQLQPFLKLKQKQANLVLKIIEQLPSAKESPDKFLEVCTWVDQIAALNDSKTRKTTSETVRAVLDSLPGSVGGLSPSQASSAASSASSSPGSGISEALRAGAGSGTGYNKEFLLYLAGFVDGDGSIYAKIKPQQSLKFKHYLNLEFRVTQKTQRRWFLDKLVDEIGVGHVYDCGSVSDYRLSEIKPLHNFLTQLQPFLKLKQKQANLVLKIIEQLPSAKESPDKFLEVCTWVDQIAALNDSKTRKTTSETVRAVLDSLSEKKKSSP
Description: (§2) Donor human T cells were stimulated with anti-CD3 and anti-CD28 antibodies for 3 days, then electroporated with mRNA encoding a given B2M 13-14 meganuclease (1 μg) using the Amaxa 4D-Nucleofector (Lonza) according to the manufacturer's instructions. To look for the loss of B2M surface expression, cells were stained with an antibody recognizing β-2 microglobulin (BD Biosciences) as well as an antibody recognizing CD3 (BioLegend), a marker of T cells.

[7] = target: T7, B2M 13-14x.287 (Artificial Sequence)
T7 chain: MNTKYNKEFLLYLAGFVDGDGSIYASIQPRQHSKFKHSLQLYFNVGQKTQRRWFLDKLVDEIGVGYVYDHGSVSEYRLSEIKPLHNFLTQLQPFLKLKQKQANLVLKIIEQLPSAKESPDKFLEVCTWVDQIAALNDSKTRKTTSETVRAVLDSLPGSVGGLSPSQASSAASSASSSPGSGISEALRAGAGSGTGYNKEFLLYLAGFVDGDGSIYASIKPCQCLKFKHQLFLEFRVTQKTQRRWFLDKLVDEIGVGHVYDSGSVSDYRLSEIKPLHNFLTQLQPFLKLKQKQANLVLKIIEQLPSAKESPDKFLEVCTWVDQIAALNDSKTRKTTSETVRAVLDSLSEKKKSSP
Description: as §2

B1: B2M 13-14 recognition sequence (dsDNA)
DNA 1: CTATCTCTTGTACTACACTGAA
DNA 2: TTCAGTGTAGTACAAGAGATAG
Work on B1 yielded an activity [1] of 19.2 % B2M-negative, an activity [2] of 21.4 % B2M-negative and an activity [3] of 5.05 % B2M-negative. The activity [4] was 18.3 % B2M-negative, the activity [5] was 2.64 % B2M-negative and the activity [6] was 19.7 % B2M-negative. It also gave an activity [7] of 75.7 % B2M-negative.
